{
  "source": "paper PMC10702427",
  "about": "“Effects of Dimerization on the Deacylase Activities of Human SIRT2” (Biochemistry, 2023)",
  "molecules": {"B1": {"name": "myristoyl-H4K16 peptide (13mer) (peptide)", "peptide": "KGLGKGGAK(Myristoyl)RHRK", "notes": "also called myristoyl peptide; myristoylated peptide; source: synthetic peptide (New England Peptide)"}, "B2": {"name": "full-length SIRT2 (amino acids 1–389), Q8IXJ6-1 1-389 (enzyme)", "chain": "MAEPDPSHPLETQAGKVQEAQDSDSDSEGGAAGGEADMDFLRNLFSQTLSLGSQKERLLDELTLEGVARYMQSERCRRVICLVGAGISTSAGIPDFRSPSTGLYDNLEKYHLPYPEAIFEISYFKKHPEPFFALAKELYPGQFKPTICHYFMRLLKDKGLLLRCYTQNIDTLERIAGLEQEDLVEAHGTFYTSHCVSASCRHEYPLSWMKEKIFSEVTPKCEDCQSLVKPDIVFFGESLPARFFSCMQSDFLKVDLLLVMGTSLQVQPFASLISKAPLSTPRLLINKEKAGQSDPFLGMIMGLGGGMDFDSKKAYRDVAWLGECDQGCLALAELLGWKKELEDLVRREHASIDAQSGAGVPNPSTSASPKKSPPPAKDEARTTEREKPQ"}, "B3": {"name": "FAM-myristoyl-H4K16 peptide (peptide)", "peptide": "{FAM-PEG4′}-KGLGKGGAK(Myristoyl)RHRK-OH"}, "B4": {"name": "SIRT2cat catalytic domain (protein)", "chain": "ERLLDELTLEGVARYMQSERCRRVICLVGAGISTSAGIPDFRSPSTGLYDNLEKYHLPYPEAIFEISYFKKHPEPFFALAKELYPGQFKPTICHYFMRLLKDKGLLLRCYTQNIDTLERIAGLEQEDLVEAHGTFYTSHCVSASCRHEYPLSWMKEKIFSEVTPKCEDCQSLVKPDIVFFGESLPARFFSCMQSDFLKVDLLLVMGTSLQVQPFASLISKAPLSTPRLLINKEKAGQSDPFLGMIMGLGGGMDFDSKKAYRDVAWLGECDQGCLALAELLGWKKELEDLVRREHASIDAQS"}, "B5": {"name": "SIRT2^cat(Q142A/E340A) (domain or fragment, human)", "chain": "SGEADMDFLRNLFSQTLSLGSQKERLLDELTLEGVARYMQSERCRRVICLVGAGISTSAGIPDFRSPSTGLYDNLEKYHLPYPEAIFEISYFKKHPEPFFALAKELYPGAFKPTICHYFMRLLKDKGLLLRCYTQNIDTLERIAGLEQEDLVEAHGTFYTSHCVSASCRHEYPLSWMKEKIFSEVTPKCEDCQSLVKPDIVFFGESLPARFFSCMQSDFLKVDLLLVMGTSLQVQPFASLISKAPLSTPRLLINKEKAGQSDPFLGMIMGLGGGMDFDSKKAYRDVAWLGECDQGCLALAELLGWKKALEDLVRREHASIDAQS"}},
  "key": {"[1]": {"molecular_target": "SIRT2 catalytic domain (SIRT2^cat), amino acids 34–356 (human) (UniProt Q8IXJ6)", "assay": "cross-linking; Bis(NHS)-PEG5, 10 μM SIRT2^cat pre-equilibrated with SIRT2 inhibitors, 50 μL, 2% DMSO; SDS-PAGE, Coomassie bands quantified"}, "[2]": {"molecular_target": "SIRT2 catalytic domain (SIRT2^cat), amino acids 34–356 (human) (UniProt Q8IXJ6)", "assay": "cross-linking; 1 mM Bis(NHS)-PEG5, 10 μM SIRT2 protein, room temperature 1 h, PBS with 1 mM DTT, with or without 12 μM acylated H4K16 peptide, ADP-ribose or the 286-313 peptide; SDS-PAGE, Coomassie bands quantified"}, "[3]": {"molecular_target": "SIRT2 catalytic domain (SIRT2^cat), amino acids 34–356 (human) (UniProt Q8IXJ6)", "assay": "cross-linking; 1 mM Bis(NHS)-PEG5, 10 μM SIRT2 protein, room temperature 1 h, PBS with 1 mM DTT, with or without 12 μM acylated H4K16 peptide, ADP-ribose or the 286-313 peptide; SDS-PAGE, Coomassie bands quantified", "remark": "listed apart in the source"}, "[4]": {"molecular_target": "SIRT2 catalytic domain (SIRT2^cat), amino acids 34–356 (human) (UniProt Q8IXJ6)", "assay": "SEC; analytical SEC, Bio-Rad Enrich SEC 650 column, PBS with 1 mM DTT, 100 μL injected (SIRT2^cat 2-80 μM; full-length SIRT2 56 μM); Kd of dimer to monomers estimated from the peak concentrations at elution, averaged over all runs with two peaks"}, "[5]": {"molecular_target": "T1, SIRT2 catalytic domain (SIRT2^cat), amino acids 34–356 (human, UniProt Q8IXJ6-1 34-356)", "T1 chain": "B5 chain with A110Q, A308E"}, "SIRT2^cat(Q142A/E340A)": {"molecular_target": "B5", "assay": "cross-linking; 1 mM Bis(NHS)-PEG5, 10 μM SIRT2 protein, room temperature 1 h, PBS with 1 mM DTT, with or without 12 μM acylated H4K16 peptide, ADP-ribose or the 286-313 peptide; SDS-PAGE, Coomassie bands quantified", "settings": "both partners purified"}, "[6]": {"molecular_target": "T2, full-length SIRT2 (amino acids 1–389) (human), Q8IXJ6", "T2 chain": "B2 chain", "assay": "cross-linking; 1 mM Bis(NHS)-PEG5, 10 μM SIRT2 protein, room temperature 1 h, PBS with 1 mM DTT, with or without 12 μM acylated H4K16 peptide, ADP-ribose or the 286-313 peptide; SDS-PAGE, Coomassie bands quantified", "settings": "remark: other sources report otherwise"}, "[7]": {"molecular_target": "T2, full-length SIRT2 (amino acids 1–389) …", "assay": "SEC; analytical SEC, Bio-Rad Enrich SEC 650 column, PBS with 1 mM DTT, 100 μL injected (SIRT2^cat 2-80 μM; full-length SIRT2 56 μM); Kd of dimer to monomers estimated from the peak concentrations at elution, averaged over all runs with two peaks", "settings": "remark: other sources report otherwise"}, "[8]": {"molecular_target": "myristoyl-H4K16 peptide H4K16 peptide (Homo sapiens, UniProt P62805, myristoylated K16)", "assay": "gel shift assay"}, "[9]": {"molecular_target": "the molecule itself", "assay": "cell-based or functional assay"}},
  "note": "Where a chain is given by its changes, count along the chain named. Names and notes keep the numbering of the source. Values joined by “and” are separate entries in the source; they are usually repeats but may differ in a detail not shown here. Identical values can stand only once. Like-named read-outs stand apart in the source and are kept apart here. Primed or numbered codes have the meaning given here. Where no end group is shown, it is not given here. The star is where a group is joined. Myristoyl = CCCCCCCCCCCCCC(=O)*; PEG4′ = PEG4 linker",
  "data": [
    {"molecule": "SIRT2 catalytic domain (SIRT2^cat), amino acids 34–356 (from UniProt Q8IXJ6-1 34-356) (domain or fragment)", "values": [
      {"measurement": "percent of the protein cross-linked as dimer, no inhibitor", "setting": "[1]", "value": "49.9% and 50.6%"},
      {"measurement": "percent of the protein cross-linked as dimer, with 20 μM ascorbyl palmitate", "setting": "[1]", "value": 32.1, "unit": "%"},
      {"measurement": "percent of the protein cross-linked as dimer, with 200 μM ascorbyl palmitate", "setting": "[1]", "value": 31.8, "unit": "%"},
      {"measurement": "percent of the protein cross-linked as dimer", "setting": "[2]", "value": 50.8, "unit": "%"},
      {"measurement": "percent of the protein cross-linked as trimer", "setting": "[2]", "value": 6, "unit": "%"},
      {"measurement": "percent of the protein migrating as monomer after cross-linking", "setting": "[2]", "value": 43.2, "unit": "%"},
      {"measurement": "percent of the protein cross-linked as dimer", "setting": "[3]", "value": 47.4, "unit": "%"},
      {"measurement": "Kd", "setting": "[4]", "value": 121, "unit": "nM"},
      {"measurement": "stoichiometry N", "setting": "[4]", "value": 2}
    ]},
    {"molecule": "B1", "values": [
      {"measurement": "Kd", "setting": "[5]", "value": 1000, "unit": "nM"},
      {"measurement": "binding result", "setting": "SIRT2^cat(Q142A/E340A)", "value": "binds"}
    ]},
    {"molecule": "B2", "values": [
      {"measurement": "percent of the protein oligomeric after cross-linking", "setting": "[6]", "value": 50, "unit": "%"},
      {"measurement": "stoichiometry N", "setting": "[7]", "value": 2}
    ]},
    {"molecule": "B3", "values": [
      {"measurement": "Kd", "setting": "[5]", "value": 2000, "unit": "nM"}
    ]},
    {"molecule": "B4", "values": [
      {"measurement": "Kd", "setting": "[8]", "value": "~1500", "unit": "nM"}
    ]},
    {"molecule": "B5", "values": [
      {"measurement": "fold decrease in de-4-oxononanoylase catalytic efficiency (kcat/Km) of the mutant against wild-type SIRT2^cat", "setting": "[9]", "value": 4, "unit": "fold"},
      {"measurement": "fold decrease in deacetylase catalytic efficiency (kcat/Km, acetyl-H4K16 peptide, 1 mM NAD+) of the mutant against wild-type SIRT2^cat", "setting": "[9]", "value": 6, "unit": "fold"}
    ]}
  ]
}
